Consider five molecules from publication PMC3913770, “Characterization of New Polyol/H^+ Symporters in Debaryomyces hansenii” (PLoS ONE, 2014).

For one series, the target named is T1, DhSgl1 (Debaryomyces hansenii, UniProt Q6BN62).
T1 construct: gene DEHA2E24310g; full-length ORF (626 aa) without stop, C-terminal GFP, plasmid pUG35, in S. cerevisiae YSH 1172 (strain MLY22)
Briefly: initial extracellular alkalinization (H+ symport) in unbuffered yeast cell suspension, Michaelis-Menten fit. Type of series: cell-based. The settings on record: pH 5, proton symport, one H+ per polyol assumed, maltose-grown S. cerevisiae cells. The source says: initial extracellular alkalinization (H+ symport) in unbuffered yeast cell suspension, Michaelis-Menten fit on DhSgl1

The target of the next series is T2, DhSyl1 (Debaryomyces hansenii, UniProt B5RT81).
T2 construct: gene DEHA2C05896g; full-length ORF (649 aa) without stop, C-terminal GFP, plasmid pUG35, in S. cerevisiae YSH 1172 (strain MLY9); any CUG codon is read as Leu in the host
T2 sequence (B5RT81 1-649): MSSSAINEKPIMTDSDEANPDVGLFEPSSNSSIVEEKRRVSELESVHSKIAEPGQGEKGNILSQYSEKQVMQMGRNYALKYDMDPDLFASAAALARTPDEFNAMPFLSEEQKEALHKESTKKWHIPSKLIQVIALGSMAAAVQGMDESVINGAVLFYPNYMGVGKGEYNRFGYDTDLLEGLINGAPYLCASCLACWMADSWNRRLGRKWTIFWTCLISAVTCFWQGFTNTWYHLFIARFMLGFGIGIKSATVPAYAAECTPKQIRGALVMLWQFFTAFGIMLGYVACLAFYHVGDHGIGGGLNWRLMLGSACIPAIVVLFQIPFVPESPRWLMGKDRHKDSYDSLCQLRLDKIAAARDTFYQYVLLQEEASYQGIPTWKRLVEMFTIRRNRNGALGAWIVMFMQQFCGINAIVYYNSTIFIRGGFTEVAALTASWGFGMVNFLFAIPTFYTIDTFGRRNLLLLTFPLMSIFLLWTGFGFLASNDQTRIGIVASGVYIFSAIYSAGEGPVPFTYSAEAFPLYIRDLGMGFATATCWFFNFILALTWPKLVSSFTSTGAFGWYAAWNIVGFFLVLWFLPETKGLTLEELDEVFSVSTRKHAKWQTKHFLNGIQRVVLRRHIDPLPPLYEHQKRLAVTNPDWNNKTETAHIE
Description: inhibition of [U-14C] sorbitol uptake. It is filed as cell-based. The settings on record: 1.5 mM [U-14C] sorbitol, 20 mM mannitol.

Substrate in series [1]: O[C@H]1[C@H](O)[C@H](O)[C@@H](O)[C@H](O)[C@H]1O
Briefly: initial extracellular alkalinization (H+ symport) in unbuffered yeast cell suspension, Michaelis-Menten fit. The settings on record: pH 5, proton symport, one H+ per polyol assumed, maltose-grown S. cerevisiae cells. Type of series: cell-based, Debaryomyces hansenii. The text has this:
initial extracellular alkalinization (H+ symport) in unbuffered yeast cell suspension, Michaelis-Menten fit on DhSyi1

Substrate in series [2]: OC[C@@H](O)[C@@H](O)[C@@H](O)CO
The description is as above. The note with it: pH 5, proton symport, one H+ per polyol assumed, maltose-grown S. cerevisiae cells. It is filed as cell-based, Debaryomyces hansenii. The text has this:
(§1) initial extracellular alkalinization (H+ symport) in unbuffered yeast cell suspension, Michaelis-Menten fit on DhSyl2

Substrate in series [3]: OC[C@@H](O)C(O)[C@H](O)CO
The description is as above. It is filed as cell-based, Debaryomyces hansenii. The settings on record: pH 5, proton symport, one H+ per polyol assumed, maltose-grown S. cerevisiae cells.
Description: as §1

Substrate in series [4]: OC[C@@H](O)[C@@H](O)[C@H](O)[C@@H](O)CO
Described as above. It is filed as cell-based, Debaryomyces hansenii. The note with it: pH 5, proton symport, one H+ per polyol assumed, maltose-grown S. cerevisiae cells.
Description: as §1

Substrate in series [5]: OC[C@@H](O)[C@@H](O)[C@H](O)[C@H](O)CO
The description is as above. It is filed as cell-based, Debaryomyces hansenii. The settings on record: pH 5, proton symport, one H+ per polyol assumed, maltose-grown S. cerevisiae cells.
Description: as §1

Substrate in series [6]: OC[C@@H](O)[C@@H](O)[C@@H](O)CO
The series is described as above. Type of series: cell-based, Debaryomyces hansenii. The settings on record: pH 5, proton symport, one H+ per polyol assumed, maltose-grown S. cerevisiae cells. The source says:
(§2) initial extracellular alkalinization (H+ symport) in unbuffered yeast cell suspension, Michaelis-Menten fit on DhSyl1
This is another data set of the same source.

Substrate in series [7]: OC[C@@H](O)C(O)[C@H](O)CO
Described as above. It is filed as cell-based, Debaryomyces hansenii. The settings on record: pH 5, proton symport, one H+ per polyol assumed, maltose-grown S. cerevisiae cells.
Description: as §2
The source holds these as a separate data set.

Substrate in series [8]: OC[C@@H](O)[C@H](O)[C@H](O)[C@@H](O)CO
Described as above. It is filed as cell-based, Debaryomyces hansenii. The settings on record: pH 5, proton symport, one H+ per polyol assumed, maltose-grown S. cerevisiae cells.
Description: as §2

Substrate in series [9]: OC[C@@H](O)[C@@H](O)[C@H](O)[C@@H](O)CO
Described as above. Type of series: cell-based, Debaryomyces hansenii. The note with it: pH 5, proton symport, one H+ per polyol assumed, maltose-grown S. cerevisiae cells.
Description: as §2
The source holds these as a separate data set.

Substrate in series [10]: OC[C@@H](O)[C@@H](O)[C@H](O)[C@H](O)CO
The series is described as above. The settings on record: pH 5, proton symport, one H+ per polyol assumed, maltose-grown S. cerevisiae cells. It is filed as cell-based, Debaryomyces hansenii.
Description: as §2
The source holds these as a separate data set.

The Km is the substrate concentration at which the rate is half of its maximum.

T1 sequence (Q6BN62 entry or part of it): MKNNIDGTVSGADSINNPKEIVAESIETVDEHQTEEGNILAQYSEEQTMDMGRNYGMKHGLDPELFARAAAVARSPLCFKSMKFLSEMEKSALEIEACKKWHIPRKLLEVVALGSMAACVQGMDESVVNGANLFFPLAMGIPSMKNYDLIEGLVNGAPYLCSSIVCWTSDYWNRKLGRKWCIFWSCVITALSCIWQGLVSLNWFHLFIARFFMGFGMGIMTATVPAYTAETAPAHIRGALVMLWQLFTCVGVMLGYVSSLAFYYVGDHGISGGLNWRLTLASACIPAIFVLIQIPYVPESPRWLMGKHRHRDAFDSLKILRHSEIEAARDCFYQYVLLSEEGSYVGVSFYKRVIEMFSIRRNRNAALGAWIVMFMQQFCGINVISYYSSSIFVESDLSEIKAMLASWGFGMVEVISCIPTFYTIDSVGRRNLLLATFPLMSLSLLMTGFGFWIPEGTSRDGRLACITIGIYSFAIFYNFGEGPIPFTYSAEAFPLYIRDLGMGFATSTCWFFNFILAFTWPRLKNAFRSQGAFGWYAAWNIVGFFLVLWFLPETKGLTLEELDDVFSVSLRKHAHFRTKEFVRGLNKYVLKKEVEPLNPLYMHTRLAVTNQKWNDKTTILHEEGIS

Turning to `OC[C@@H](O)[C@H](O)[C@H](O)[C@@H](O)CO` [D-Galactitol], at DhSgl1, the Km amounted to 1.93 ± 0.77 mM.

As to `OC[C@@H](O)[C@@H](O)[C@H](O)[C@H](O)CO` [D-Mannitol], on DhSyl1, the “% reduction of sorbitol uptake at 20 mM” value was found to be 70%.

B1: DhSyi1 (Debaryomyces hansenii CBS767) (protein)
chain: MATEDKELGVVITDVSKLSEKIEEQNNIISKGGSVDDYLYEKRPWWKVNYLVRLNFCIFLITLSSTNNGYDGSMLNGLQSVSYWPEKMGNPQGSVLGALSNGNVFGVVLSFVCASWLADKFGRWRCIFVGQTITILGSILQGVSTNYGFFLASRIILGFGVGIAGVSSPSLISELAYPTHRATATTFYNVCWYLGAIIAAWVTYGTLNIENDYSWRIPSYLQAALPCLQIAFFWMVPESPRYLINKDRISDAEKVLRKFHAGGETHERANDLVSFEIEEIQAALEIEKLSSNSRYSDFITMPTFRKRLFLAVFVAVIMQLSGNGLVSYYLNKVLNSIGITDPHEQLKINGCLMVYNLVISSVVASVAGRFKRRSMFLICTILMLVFYVIWTILSAINQQRNFEQKSLGNGVIAMIFFYYLAYDIGANGLPFLYITEIMPYSHRAKGMNIFTVSQNIIIIFNGFVNPIAMDAIEWKYYIVYCCILAVEVITVLFTFVETSAYTLEEVAKVFGDDPGQTLIHLSSAPPKPEVGHIETV
notes: full-length ORF (536 aa) without stop, C-terminal GFP, plasmid pUG35, in S. cerevisiae YSH 1172 (strain MLY23); any CUG codon is read as Leu in the host
As for B1, the Km in series [1] was 18.64 ± 9.23 mM.

B2: DhSyl2 (Debaryomyces hansenii CBS767) (protein)
chain: MPSETNPEKPVALRSDNPHEENGLFEHSSNSSFNEKRRVSELESIHSKIAEPGQGEKGNILSQYSEKQVMQMGRNYALKYDLDPDLFARAAALARTPDDFNAMPFITEEEKQALHKEHTKKWHIPSKLIQVIALGSMAAAVQGMDESVINGALLFYPNYMGVGKGEYNRFGYDTDMIEGLINGAPYLCASCIACWMSDLWNRHLGRKWTIFWTCLISALTCFWQGFTNTWYHLFIARFMLGFGIGIKSATVPAYAAECTPKQIRGALVMLWQFFTAVGIMFGYVACLAFYHVGDHGIGGGLNWRLMLGSACIPAIIVLFQIPFVPESPRWLMGKDRHKDSYDSLCQLRLDKIAAARDTFYQYVLLQEEASYQGIPTWKRLVEMFTIRRNRNGALGAWIVMFMQQFCGINAIVYYNSTIFIQGGFTEVDALTASWGFGMVNFLFAIPTFYTIDTFGRRNLLLFTFPLMALFLIWTGLGFVAEDGTKTQTGIVASGVYIFSAIYSAGEGPVPFTYSAEAFPLYIRDIGMGFATATCWFFNFILALTWPKLVSSFGRTGAFMWYAAWNIAGFFMVLWFLPETKGLTLEELDEVFSVSTRKHAIYQTKSILNSFQRVVLRRHIDPLPPLYEHQKRLAVTNPDWNNKTETAHIE
notes: full-length ORF (649 aa) without stop, C-terminal GFP, plasmid pUG35, in S. cerevisiae YSH 1172 (strain MLY12); any CUG codon is read as Leu in the host
Regarding B2, the Km was 18.31 ± 3.23 mM in [2], 0.46 ± 0.21 mM in series [3], 13.82 ± 2.12 mM in series [4] and 0.93 ± 0.16 mM in [5].

B3: DhSyl1 (Debaryomyces hansenii CBS767) (protein)
chain: MSSSAINEKPIMTDSDEANPDVGLFEPSSNSSIVEEKRRVSELESVHSKIAEPGQGEKGNILSQYSEKQVMQMGRNYALKYDMDPDLFASAAALARTPDEFNAMPFLSEEQKEALHKESTKKWHIPSKLIQVIALGSMAAAVQGMDESVINGAVLFYPNYMGVGKGEYNRFGYDTDLLEGLINGAPYLCASCLACWMADSWNRRLGRKWTIFWTCLISAVTCFWQGFTNTWYHLFIARFMLGFGIGIKSATVPAYAAECTPKQIRGALVMLWQFFTAFGIMLGYVACLAFYHVGDHGIGGGLNWRLMLGSACIPAIVVLFQIPFVPESPRWLMGKDRHKDSYDSLCQLRLDKIAAARDTFYQYVLLQEEASYQGIPTWKRLVEMFTIRRNRNGALGAWIVMFMQQFCGINAIVYYNSTIFIRGGFTEVAALTASWGFGMVNFLFAIPTFYTIDTFGRRNLLLLTFPLMSIFLLWTGFGFLASNDQTRIGIVASGVYIFSAIYSAGEGPVPFTYSAEAFPLYIRDLGMGFATATCWFFNFILALTWPKLVSSFTSTGAFGWYAAWNIVGFFLVLWFLPETKGLTLEELDEVFSVSTRKHAKWQTKHFLNGIQRVVLRRHIDPLPPLYEHQKRLAVTNPDWNNKTETAHIE
notes: full-length ORF (649 aa) without stop, C-terminal GFP, plasmid pUG35, in S. cerevisiae YSH 1172 (strain MLY9); any CUG codon is read as Leu in the host
Take B3: the Km in series [6] was 11.44 ± 4.46 mM; in series [7] it was 0.96 ± 0.32 mM; in series [8], 12.33 ± 1.50 mM; in [9], 11.51 ± 2.50 mM; in [10] it was 0.30 ± 0.09 mM.
